According to patent US20230056445A1 (published 2023):
Where two headings read alike, the source gives them in different places.

What was measured:
[1] = target: T1, human IL-7Rα (IL-7R) on human PBMCs / monocytes (human, UniProt P16871 21-459); test: cell-based or functional assay
T1 chain: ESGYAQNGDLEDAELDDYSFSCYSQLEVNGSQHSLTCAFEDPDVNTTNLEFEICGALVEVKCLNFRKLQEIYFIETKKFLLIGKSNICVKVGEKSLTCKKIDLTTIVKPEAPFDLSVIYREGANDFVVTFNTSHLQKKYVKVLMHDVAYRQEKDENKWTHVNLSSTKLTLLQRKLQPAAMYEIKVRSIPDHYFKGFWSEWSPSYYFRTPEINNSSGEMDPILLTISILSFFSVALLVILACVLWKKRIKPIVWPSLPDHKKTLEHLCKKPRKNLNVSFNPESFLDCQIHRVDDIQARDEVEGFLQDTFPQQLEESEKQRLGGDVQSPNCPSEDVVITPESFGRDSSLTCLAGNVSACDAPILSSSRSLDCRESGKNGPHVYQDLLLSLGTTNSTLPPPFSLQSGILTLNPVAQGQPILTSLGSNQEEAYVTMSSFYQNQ

[2] = target: T1, human IL-7Rα (IL-7R) on human PBMCs / …; test: cell-based or functional assay

B1: V7R-2E9 (VHH, not shown: small tags and cut ends)
VHH: EVQLVESGGGLVQAGGSLRLSCESSISTFSSDAMGWFRQAPGKEREFLAAIGWSGAVTHYSDSVQGRFTISRDNAKNTVYLQMNSLKSEDTGRYYCAEDYDTDVWQYWGQGTQVTVSS
IL-7 induced pSTAT5 in hPBMCs EC50 [1]: 2.86 nM | IL-7 induced pSTAT5 in hPBMCs EC50 [2]: 2.86 nM
